Experimental data published in patent US20150266974A1 (RINAT NEUROSCIENCE, published 2015).

Legend:
mouse PCSK9 [1] = molecular target: T1, mouse PCSK9 (mouse, UniProt Q80W65 35-694, limits assumed); experiment: SPR Biacore 3000, captured IgG, mPCSK9 injected, pH 5.5
T1 construct: also called mPCSK9; msPCK9
Excerpt: (§1) These antibodies were expressed and purified for determination of their KD at 7.4 and their KD ratio of pH5.5/pH 7.4, as measured on a surface plasmon resonance Biacore 3000 biosensor equipped with a research-grade sensor chip using HBS-EP running buffer (Biacore AB, Uppsala, Sweden—now GE Healthcare). Rabbit polyclonal anti-Ms IgGs were amine-coupled at saturating levels onto the chip using a standard N-hydroxysuccinimide/ethyldimethylaminopropyl carbodiimide (NHS/EDC) chemistry. The buffer was switched to HBS-EP+1 mg/mL BSA+1 mg/mL CM-dextran. Full-length PCSK9 IgGs were diluted to about 15 μg/mL and captured for 1 min at 5 μL/min to give levels of about 500 RU per flow cell, leaving one blank to serve as a reference channel. […] Dissociation was monitored for 5 min. The chip was regenerated after the last injection of each titration with two 30 sec pulses of 100 mM phosphoric acid. Buffer cycles provided blanks for double-referencing the data, which were then fit globally to a simple binding model using Biaevaluation software v.4.1. Affinities were deduced from the quotient of the kinetic rate constants (KD=koff/kₒₙ).

mouse PCSK9 [2] = molecular target: T1, mouse PCSK9; experiment: SPR Biacore 3000, captured IgG, mPCSK9 injected, pH 7.4
Excerpt: as §1

human PCSK9 [3] = molecular target: T2, human PCSK9 (human, UniProt Q8NBP7 31-692, limits assumed); experiment: SPR Biacore 3000, KD at pH 5.5 over KD at pH 7.4
T2 construct: also called hPCSK9; huPCSK9
Excerpt: as §1

mouse PCSK9 [4] = molecular target: T1, mouse PCSK9; experiment: SPR Biacore 3000, KD at pH 5.5 over KD at pH 7.4
Excerpt: as §1

human PCSK9 [5] = molecular target: T2, human PCSK9; experiment: SPR Biacore 3000, captured IgG, hPCSK9 injected, pH 5.5
Excerpt: as §1

human PCSK9 [6] = molecular target: T2, human PCSK9; experiment: SPR Biacore 3000, captured IgG, hPCSK9 injected, pH 7.4
Excerpt: as §1

T2 sequence (Q8NBP7 31-692 limits assumed): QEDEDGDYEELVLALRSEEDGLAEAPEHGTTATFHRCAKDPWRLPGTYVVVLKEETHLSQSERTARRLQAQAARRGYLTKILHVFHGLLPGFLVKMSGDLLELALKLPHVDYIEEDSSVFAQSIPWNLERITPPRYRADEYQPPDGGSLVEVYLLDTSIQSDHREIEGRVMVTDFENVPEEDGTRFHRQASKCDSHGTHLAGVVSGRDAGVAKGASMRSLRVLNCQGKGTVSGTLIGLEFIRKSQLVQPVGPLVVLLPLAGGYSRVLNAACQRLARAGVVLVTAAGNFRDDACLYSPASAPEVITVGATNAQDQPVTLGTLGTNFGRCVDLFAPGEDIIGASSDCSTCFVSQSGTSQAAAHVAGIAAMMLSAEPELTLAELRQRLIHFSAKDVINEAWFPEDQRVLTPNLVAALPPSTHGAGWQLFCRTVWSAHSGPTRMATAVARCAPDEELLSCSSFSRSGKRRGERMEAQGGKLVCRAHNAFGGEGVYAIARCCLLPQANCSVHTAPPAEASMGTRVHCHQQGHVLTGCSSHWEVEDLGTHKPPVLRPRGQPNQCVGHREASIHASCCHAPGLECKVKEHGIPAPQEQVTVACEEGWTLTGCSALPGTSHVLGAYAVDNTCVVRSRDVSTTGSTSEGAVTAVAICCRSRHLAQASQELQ
T1 sequence (Q80W65 35-694 limits assumed): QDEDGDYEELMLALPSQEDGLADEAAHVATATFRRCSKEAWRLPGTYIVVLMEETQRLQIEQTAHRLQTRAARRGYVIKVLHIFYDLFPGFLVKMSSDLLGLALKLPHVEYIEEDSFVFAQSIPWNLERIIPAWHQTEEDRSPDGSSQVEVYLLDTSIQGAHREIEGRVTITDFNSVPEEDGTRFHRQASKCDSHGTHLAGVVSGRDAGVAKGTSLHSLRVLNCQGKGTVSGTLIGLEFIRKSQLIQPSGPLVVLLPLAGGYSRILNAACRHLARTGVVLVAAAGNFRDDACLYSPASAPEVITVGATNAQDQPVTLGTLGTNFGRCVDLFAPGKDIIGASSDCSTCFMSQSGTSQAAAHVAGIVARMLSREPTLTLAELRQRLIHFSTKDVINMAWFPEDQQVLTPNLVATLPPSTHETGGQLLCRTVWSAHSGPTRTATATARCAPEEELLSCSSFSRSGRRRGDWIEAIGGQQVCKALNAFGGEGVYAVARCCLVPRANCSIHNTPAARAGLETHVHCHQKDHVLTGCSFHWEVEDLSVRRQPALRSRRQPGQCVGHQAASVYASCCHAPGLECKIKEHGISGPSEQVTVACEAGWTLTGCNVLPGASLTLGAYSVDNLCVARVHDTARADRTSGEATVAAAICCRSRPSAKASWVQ

Binder	Kd (mouse PCSK9 [1]) [nM]	koff (mouse PCSK9 [1]) [s⁻¹]	kon (mouse PCSK9 [1]) [M⁻¹ s⁻¹]	Kd (mouse PCSK9 [2]) [nM]	koff (mouse PCSK9 [2]) [s⁻¹]	kon (mouse PCSK9 [2]) [M⁻¹ s⁻¹]	KD ratio pH 5.5/7.4 (human PCSK9 [3])	KD ratio pH 5.5/7.4 (mouse PCSK9 [4])	Kd (human PCSK9 [5]) [nM]	koff (human PCSK9 [5]) [s⁻¹]	kon (human PCSK9 [5]) [M⁻¹ s⁻¹]	Kd (human PCSK9 [6]) [nM]	koff (human PCSK9 [6]) [s⁻¹]	kon (human PCSK9 [6]) [M⁻¹ s⁻¹]
5L1721H23_6L3H3 (antibody, V domains shown, Tested as full-length IgG; also called heavy UC-H5H23-6H3, light UC-H5L1721-6L3) VH: QVQLVQSGAEVKKPGASVKVSCKASGYTFTSYYMHWVRQAPGQGLEWMGEIHPSGGRTNYNEKFKSRVTMTRDTSTSTVYMELSSLRSEDTAVYYCARERPLYASDLWGQGTTVTVSS VL: DIQMTQSPSSLSASVGDRVTITCKASQDVHTAVAWYQQKPGKAPKLLIYHASYRYTGVPSRFSGSGSGTDFTFTISSLQPEDIATYYCQQRYSLWRTFGQGTKLEIK	117	0.0187	160000	8.1	0.000516	63700	–	–	–	–	–	–	–	–
5L1724H35 (antibody, V domains shown, Triple histidine mutant of h5A10; Only CDRs printed; Full-length IgG) VH: QVQLVQSGAEVKKPGASVKVSCKASGYTFTSYYMHWVRQAPGQGLEWMGEINPSGGRTNYNEKFKSRVTMTRDTSTSTVYMELSSLRSEDTAVYYCARERPLHAMDYWGQGTTVTVSS VL: DIQMTQSPSSLSASVGDRVTITCKASQDVHTAVAWYQQKPGKAPKLLIYSASHRYTGVPSRFSGSGSGTDFTFTISSLQPEDIATYYCQQRYSTPRTFGQGTKLEIK	–	–	–	35	0.00153	44300	–	–	–	–	–	–	–	–
5L1721H23_6H3 (antibody, V domains shown, Only CDRs printed; Full-length IgG) VH: QVQLVQSGAEVKKPGASVKVSCKASGYTFTSYYMHWVRQAPGQGLEWMGEIHPSGGRTNYNEKFKSRVTMTRDTSTSTVYMELSSLRSEDTAVYYCARERPLYASDLWGQGTTVTVSS VL: DIQMTQSPSSLSASVGDRVTITCKASQDVHTAVAWYQQKPGKAPKLLIYHASYRYTGVPSRFSGSGSGTDFTFTISSLQPEDIATYYCQQRYSTPRTFGQGTKLEIK	111	0.0341	307000	8	0.000899	113000	7.5	13.9	55	0.00772	141000	7.3	0.000273	37400
5L1724H23 (antibody, V domains shown, Triple histidine mutant of h5A10; Only CDRs printed; Full-length IgG) VH: QVQLVQSGAEVKKPGASVKVSCKASGYTFTSYYMHWVRQAPGQGLEWMGEIHPSGGRTNYNEKFKSRVTMTRDTSTSTVYMELSSLRSEDTAVYYCARERPLYAMDYWGQGTTVTVSS VL: DIQMTQSPSSLSASVGDRVTITCKASQDVHTAVAWYQQKPGKAPKLLIYSASHRYTGVPSRFSGSGSGTDFTFTISSLQPEDIATYYCQQRYSTPRTFGQGTKLEIK	74	0.0202	273000	–	–	–	–	–	39	0.00793	203000	–	–	–

Other lines, results leading:

Kd (mouse PCSK9 [1]) [nM]	koff (mouse PCSK9 [1]) [s⁻¹]	kon (mouse PCSK9 [1]) [M⁻¹ s⁻¹]	Kd (mouse PCSK9 [2]) [nM]	koff (mouse PCSK9 [2]) [s⁻¹]	kon (mouse PCSK9 [2]) [M⁻¹ s⁻¹]	KD ratio pH 5.5/7.4 (human PCSK9 [3])	KD ratio pH 5.5/7.4 (mouse PCSK9 [4])	Kd (human PCSK9 [5]) [nM]	koff (human PCSK9 [5]) [s⁻¹]	kon (human PCSK9 [5]) [M⁻¹ s⁻¹]	Kd (human PCSK9 [6]) [nM]	koff (human PCSK9 [6]) [s⁻¹]	kon (human PCSK9 [6]) [M⁻¹ s⁻¹]	Binder
576	0.0588	102000	23	0.00141	61200	11.1	25	144	0.0179	124000	13	0.000399	31700	5L1721H23 (antibody, V domains shown, Triple histidine mutant of h5A10; Only CDRs printed; Full-length IgG) VH: QVQLVQSGAEVKKPGASVKVSCKASGYTFTSYYMHWVRQAPGQGLEWMGEIHPSGGRTNYNEKFKSRVTMTRDTSTSTVYMELSSLRSEDTAVYYCARERPLYAMDYWGQGTTVTVSS VL: DIQMTQSPSSLSASVGDRVTITCKASQDVHTAVAWYQQKPGKAPKLLIYHASYRYTGVPSRFSGSGSGTDFTFTISSLQPEDIATYYCQQRYSTPRTFGQGTKLEIK
756	0.121	160000	41	0.00218	53100	24.5	18.4	540	0.0407	75400	22	0.00079	35900	5L1724H23_6L3 (antibody, V domains shown, Only CDRs printed; Full-length IgG) VH: QVQLVQSGAEVKKPGASVKVSCKASGYTFTSYYMHWVRQAPGQGLEWMGEIHPSGGRTNYNEKFKSRVTMTRDTSTSTVYMELSSLRSEDTAVYYCARERPLYAMDYWGQGTTVTVSS VL: DIQMTQSPSSLSASVGDRVTITCKASQDVHTAVAWYQQKPGKAPKLLIYSASHRYTGVPSRFSGSGSGTDFTFTISSLQPEDIATYYCQQRYSLWRTFGQGTKLEIK
